B1: MccB-His6 (enzyme, E. coli, UniProt Q47506 1-350, looked up)
chain: MDYILGRYVKIARYGSGGLVGGGGKEQYVENLVLWENIIKTAYCFITPSSYTAALETANIPEKDFSNCFRFLKENFFIIPGEYNNSTENNRYSRNFLHYQSYGANPVLVQDKLKNAKVVILGCGGIGNHVSVILATSGIGEIILIDNDQIENTNLTRQVLFSEDDVGKNKTEVIKRELLKRNSEISVSEIALNINDYTDLHKVPEADIWVVSADHPFNLINWVNKYCVRANQPYINAGYVNDIAVFGPLYVPGKTGCYECQKVVADLYGSEKENIDHKIKLINSRFKPATFAPVNNVAAALCAADVIKFIGKYSEPLSLNKRIGIWSDEIKIHSQNMGRSPVCSVCGNRM
B2: MccB (N-terminal His6-tag removed) (enzyme, E. coli, UniProt Q47506 1-350, looked up)
chain: B1 chain
B3: SeMet-MccA (peptide)
peptide: MRTGNAN

Series [1] concerns Nc1ncnc2c1ncn2[C@@H]1O[C@H](COP(=O)(O)OP(=O)(O)OP(=O)(O)O)[C@@H](O)[C@H]1O. The series can be described thus: purified protein. It counts as biochemical, Escherichia coli. As to conditions: 75 mM Tris-HCl pH 8.0, 5 mM MgCl2, 2.5 mM TCEP, co-substrate MccA.
In the next series the target is MccB ΔNTE (E. coli). The series can be described thus: AUC.
Series [2] deals with the molecule itself. In words: crystal structure.
Series [3] concerns the molecule itself. In words: crystal structure. The source holds these as a separate data set.
The target of the next series is T1, MccB K10A (E. coli) (UniProt Q47506).
T1 sequence: B1 chain with K10A

The target of series [4] is B2. In words: crystal structure.

Substitutions are numbered along the chain they refer to. Read-outs that look alike come from different tables or passages of the source.

What is called Km is the substrate concentration at which the rate is half of its maximum. What is called kcat is the maximal rate divided by the concentration of active sites. What is called kcat/Km is the turnover number divided by the Michaelis constant. As to MccB (Escherichia coli; C123L), in series [1], the Km was 220 ± 80 µM, the kcat came to 0.000306 ± 8.33e-05 s⁻¹ and the kcat/Km was found to be 2.22 M⁻¹ s⁻¹.
On to MccB (Escherichia coli; K10A), for which, in series [1], the Km turned out to be 120 ± 20 µM, the catalytic constant (kcat) came out at 0.00103 ± 0.000139 s⁻¹ and the kcat/Km was found to be 8.33 M⁻¹ s⁻¹.
The like results for MccB (Escherichia coli; N241A) were, in that order, 400 ± 120 µM, 0.000472 ± 0.000139 s⁻¹ and 1.11 M⁻¹ s⁻¹.
The matching figures for MccB (Escherichia coli; R94A): 380 ± 130 µM, 0.00125 ± 0.000917 s⁻¹ and 2.22 M⁻¹ s⁻¹.
Consider MccB (Escherichia coli; Y239A), for which, in series [1], the Km came out at 380 ± 190 µM, the kcat stood at 5.56e-06 ± 2.22e-06 s⁻¹ and the kcat/Km was found to be 0.0139 M⁻¹ s⁻¹.
The term stoichiometry N denotes a count of units in the complex or per binding partner. MccB ΔNTE (domain or fragment) yielded a stoichiometry N in the series with MccB ΔNTE (E. coli) of 2.
On to B1, for which, in “crystal structure [2]”, the binding result is “binds”.
Regarding B2, the binding result in “crystal structure [3]” was “binds”.
For B3, in the series with MccB K10A (E. coli), the Km for MccA in the MccB-catalysed reaction (HPLC of product formation) amounted to 370 µM. Besides, the binding result in series [4] was “binds”.

Values taken from paper PMC2711183 (The EMBO journal, 2009).
